# Laboratory results taken from patent US20100227824A1 (SYMTHERA CANADA, published 2010).
# B1: Phage-Presented Peptide 15 (Ph-p15) (peptide)
# peptide: WVFGSGLCK
# B2: Phage-Presented Peptide 18 (Ph-p18) (peptide)
# peptide: DRYLNIVHAT
# B3: Phage Presented (Ph) Peptide (p) 8 (peptide)
# peptide: WVFGNAMCK
# notes: also called Ph-p28; Ph-p 8
# B4: Phage-Presented Peptide 8.1 (Ph-p8.1) (peptide)
# peptide: GNAMCK
# Target: T1, GRO-β (CXCL2) (UniProt P19875 35-107)
# T1 construct: Bought chemokine
# T1 sequence (looked up): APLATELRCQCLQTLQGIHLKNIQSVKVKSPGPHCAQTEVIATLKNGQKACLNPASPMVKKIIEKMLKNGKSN
# Assay: micro-array, phage-presented peptide on printed CK
# Protocol: (§1) (1) Printing: Chemokine (CK) solution (in water) was serially diluted with Print Reagent (GenTel BioSurfaces USA) to final concentrations of 50 μg and 25 μg/ml. BSA/BSA-Biotin control solutions (in water) were diluted with Print Reagent to 100 μg/ml. Amplified stock of M13 phage control (M13KEgIII Cloning Vector, New England Biolabs, Cat.No.E8101S) was stored in Tris Buffered Saline (TBS; pH7.5, 4° C.) and diluted with Print Reagent to the working titre (10^8 pfu/μl). An automated spotting robot (16 pin print tool, 0.4mm head; BioRobotics, UK) was used to print the CK/BSA control/M13 control, 5 repeats per sample (CK 25 μg/ml and 50 μg/ml; BSA 100 μg/ml; M13 20 μl), on PATH Protein Microarray Slides (GenTel, Prod.No.2-1005/-1025) at […], and 50-70% relative humidity. Printed micro-array slides were stored at Room Temperature (RT) or 4° C. for at least 24 h before use.
# (§2) (2) Blocking: Block Buffer (500 μl/partition; PATHblock, GenTel, Prod.No.2-1014) was applied to the slide for 1 hour at room temp (RT). After removal of Block Buffer, the slide was air dried for 25 minutes;
# (§3) (11) Analysis: Quantitative analysis of micro-array was performed by the SpotReader program of Niles Scientific (USA) and presented as Relative Fluorescence (RF) as a function of CK concentration. Micro-array readout (Cy3 fluorescence) was quantified to determine the relative binding affinities of a CBP for the CKs and by inference, the specificity of the CBP for binding to a CK.
row,Binder,binding result
1,B1,binds
2,B2,binds

# Target: T2, Mig (CXCL9) (UniProt Q07325 23-125)
# T2 construct: Bought chemokine
# T2 sequence (looked up): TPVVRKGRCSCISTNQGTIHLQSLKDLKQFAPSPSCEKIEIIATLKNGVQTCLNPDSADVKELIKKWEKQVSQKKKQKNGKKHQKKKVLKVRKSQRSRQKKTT
# Assay: micro-array, phage-presented peptide on printed CK
# Protocol: as §1, §2, §3
row,Binder,Relative Fluorescence Units (RFU)
1,B1,> 15000 RFU
2,B2,> 9000 RFU

# Target: T3, IP-10 (CXCL10) (UniProt P02778 22-98)
# T3 construct: Bought chemokine
# T3 sequence (looked up): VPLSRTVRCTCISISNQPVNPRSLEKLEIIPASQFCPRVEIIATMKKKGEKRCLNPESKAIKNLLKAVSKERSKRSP
# Assay: micro-array, phage-presented peptide on printed CK
# Protocol: as §1, §2, §3
row,Binder,Relative Fluorescence Units (RFU)
1,B1,> 15000 RFU

# Target: T4, I-TAC (CXCL11) (UniProt O14625 22-94)
# T4 construct: Bought chemokine; also called I-TACK
# T4 sequence (looked up): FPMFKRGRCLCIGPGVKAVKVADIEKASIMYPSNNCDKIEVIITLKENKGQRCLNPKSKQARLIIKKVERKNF
# Assay: micro-array, phage-presented peptide on printed CK
# Protocol: as §1, §2, §3
row,Binder,Relative Fluorescence Units (RFU)
1,B1,> 15000 RFU
2,B2,> 9000 RFU

# Target: T5, MCP-1 (CCL2) (UniProt P13500 24-99)
# T5 construct: Bought chemokine
# Assay: micro-array, phage-presented peptide on printed CK
# Protocol: as §1, §2, §3
# T5 sequence (P13500 24-99 limits assumed): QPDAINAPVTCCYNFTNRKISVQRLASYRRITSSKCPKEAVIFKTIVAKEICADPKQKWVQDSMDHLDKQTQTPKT
row,Binder,binding result
1,B1,binds
2,B2,binds

# Target: T6, MCP-2 (CCL8) (UniProt P80075 24-99)
# T6 construct: Bought chemokine
# T6 sequence (looked up): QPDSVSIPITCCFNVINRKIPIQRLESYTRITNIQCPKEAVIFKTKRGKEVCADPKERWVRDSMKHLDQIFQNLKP
# Assay: micro-array, phage-presented peptide on printed CK
# Protocol: as §1, §2, §3
Binder,binding result,Relative Fluorescence Units (RFU)
B1,binds,
B3,,> 25000 RFU
B2,binds,

# Target: T7, MCP-4 (CCL13) (UniProt Q99616 24-98)
# T7 construct: Bought chemokine
# Assay: micro-array, phage-presented peptide on printed CK
# Protocol: as §1, §2, §3
# T7 sequence (Q99616 24-98 limits assumed): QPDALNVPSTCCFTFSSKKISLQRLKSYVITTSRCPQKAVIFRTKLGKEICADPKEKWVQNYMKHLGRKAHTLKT
Binder,binding result,Relative Fluorescence Units (RFU)
B1,binds,
B3,,> 25000 RFU
B2,binds,

# Target: T8, RANTES (CCL5) (UniProt P13501 24-91)
# T8 construct: Bought chemokine
# T8 sequence (looked up): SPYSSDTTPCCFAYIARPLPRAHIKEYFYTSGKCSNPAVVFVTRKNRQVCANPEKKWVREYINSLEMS
# Assay: micro-array, phage-presented peptide on printed CK
# Protocol: as §1, §2, §3
row,Binder,binding result
1,B1,binds
2,B2,binds

# Target: T9, Eotaxin (CCL11) (UniProt P51671 24-97)
# T9 construct: Bought chemokine
# Assay: micro-array, phage-presented peptide on printed CK
# Protocol: as §1, §2, §3
# T9 sequence (P51671 24-97 limits assumed): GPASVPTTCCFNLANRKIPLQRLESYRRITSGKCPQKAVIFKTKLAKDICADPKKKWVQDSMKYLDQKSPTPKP
row,Binder,binding result
1,B1,binds
2,B2,binds

# Target: T10, Eotaxin 2 (CCL24) (UniProt O00175 27-104, limits assumed)
# T10 construct: Bought chemokine
# T10 sequence (looked up): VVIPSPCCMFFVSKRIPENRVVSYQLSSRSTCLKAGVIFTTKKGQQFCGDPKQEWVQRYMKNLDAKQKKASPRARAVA
# Assay: micro-array, phage-presented peptide on printed CK
# Protocol: as §1, §2, §3
row,Binder,binding result
1,B1,binds
2,B2,binds

# Target: T11, Eotaxin 3 (CCL26) (UniProt Q9Y258 24-94)
# T11 construct: Bought chemokine
# T11 sequence (looked up): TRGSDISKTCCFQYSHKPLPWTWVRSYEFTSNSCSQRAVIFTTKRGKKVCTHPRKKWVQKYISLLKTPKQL
# Assay: micro-array, phage-presented peptide on printed CK
# Protocol: as §1, §2, §3
Binder,binding result,Relative Fluorescence Units (RFU)
B1,binds,
B4,,> 15000 RFU
B2,binds,

# Target: T12, BCA-1 (CXCL13) (UniProt O43927 23-109)
# T12 construct: Bought chemokine
# T12 sequence (looked up): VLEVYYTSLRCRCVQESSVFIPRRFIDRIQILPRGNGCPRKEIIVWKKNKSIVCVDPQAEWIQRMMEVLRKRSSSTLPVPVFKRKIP
# Assay: micro-array, phage-presented peptide on printed CK
# Protocol: as §1, §2, §3
Binder,binding result,Relative Fluorescence Units (RFU)
B1,binds,
B4,,> 15000 RFU
B2,binds,

# Target: T13, Exodus-2 (CCL21) (UniProt O00585 24-134)
# T13 construct: Bought chemokine
# T13 sequence (looked up): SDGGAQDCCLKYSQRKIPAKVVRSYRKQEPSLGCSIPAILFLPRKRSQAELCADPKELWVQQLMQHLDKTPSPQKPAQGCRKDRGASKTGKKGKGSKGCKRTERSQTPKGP
# Assay: micro-array, phage-presented peptide on printed CK
# Protocol: as §1, §2, §3
row,Binder,binding result
1,B1,binds

# Target: T14, TECK (CCL25) (UniProt O15444 24-150)
# T14 construct: Bought chemokine
# T14 sequence (looked up): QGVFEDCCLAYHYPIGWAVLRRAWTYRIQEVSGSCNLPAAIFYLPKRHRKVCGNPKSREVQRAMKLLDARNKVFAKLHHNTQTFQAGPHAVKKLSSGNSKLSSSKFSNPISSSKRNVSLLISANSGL
# Assay: micro-array, phage-presented peptide on printed CK
# Protocol: as §1, §2, §3
Binder,binding result,Relative Fluorescence Units (RFU)
B1,binds,
B4,,> 15000 RFU
B2,binds,

# Target: T15, Lymphotactin (XCL-1) (UniProt P47992 23-114, limits assumed)
# T15 construct: Bought chemokine
# T15 sequence (looked up): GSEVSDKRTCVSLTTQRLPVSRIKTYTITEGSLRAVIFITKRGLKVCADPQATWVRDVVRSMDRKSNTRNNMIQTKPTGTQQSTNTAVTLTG
# Assay: micro-array, phage-presented peptide on printed CK
# Protocol: as §1, §2, §3
Binder,binding result,Relative Fluorescence Units (RFU)
B1,binds,
B4,,> 15000 RFU
B2,binds,
